For data set [1], the target named is T1, MBP-SlMYC2 (Solanum lycopersicum, UniProt A0A3Q7HRZ6 1-689). As to the kind of experiment: competition; unlabeled mutant competitor vs SlATG18h probe; Chemiluminescent EMSA kit (Beyotime); buffer, salt, pH and temperature not stated. Particulars: protein: recombinant; tags: N-terminal MBP; chain copies: 2. Background: A gel shift assay detects complexes by their altered migration in electrophoresis.

In data set [2] the target is T1, MBP-SlMYC2. As to the kind of experiment: EMSA; Chemiluminescent EMSA kit (Beyotime); buffer, salt, pH and temperature not stated. Particulars: protein: recombinant; tags: N-terminal MBP; chain copies: 2; label: biotin.
Data set [3] concerns the target T1, MBP-SlMYC2. Kind of data set: competition; unlabeled mutant competitor vs SlATG13b probe; Chemiluminescent EMSA kit (Beyotime); buffer, salt, pH and temperature not stated. Particulars: protein: recombinant; tags: N-terminal MBP; chain copies: 2.
Data set [4] concerns the target T1, MBP-SlMYC2. As to the kind of experiment: competition; unlabeled mutant competitor vs SlATG18a probe; Chemiluminescent EMSA kit (Beyotime); buffer, salt, pH and temperature not stated. The settings on record: protein: recombinant; tags: N-terminal MBP; chain copies: 2.
Data set [5] concerns the target T1, MBP-SlMYC2. Kind of data set: competition; unlabeled mutant competitor vs SlATG13a probe; Chemiluminescent EMSA kit (Beyotime); buffer, salt, pH and temperature not stated. The settings on record: protein: recombinant; tags: N-terminal MBP; chain copies: 2.

T1 sequence (A0A3Q7HRZ6 whole entry): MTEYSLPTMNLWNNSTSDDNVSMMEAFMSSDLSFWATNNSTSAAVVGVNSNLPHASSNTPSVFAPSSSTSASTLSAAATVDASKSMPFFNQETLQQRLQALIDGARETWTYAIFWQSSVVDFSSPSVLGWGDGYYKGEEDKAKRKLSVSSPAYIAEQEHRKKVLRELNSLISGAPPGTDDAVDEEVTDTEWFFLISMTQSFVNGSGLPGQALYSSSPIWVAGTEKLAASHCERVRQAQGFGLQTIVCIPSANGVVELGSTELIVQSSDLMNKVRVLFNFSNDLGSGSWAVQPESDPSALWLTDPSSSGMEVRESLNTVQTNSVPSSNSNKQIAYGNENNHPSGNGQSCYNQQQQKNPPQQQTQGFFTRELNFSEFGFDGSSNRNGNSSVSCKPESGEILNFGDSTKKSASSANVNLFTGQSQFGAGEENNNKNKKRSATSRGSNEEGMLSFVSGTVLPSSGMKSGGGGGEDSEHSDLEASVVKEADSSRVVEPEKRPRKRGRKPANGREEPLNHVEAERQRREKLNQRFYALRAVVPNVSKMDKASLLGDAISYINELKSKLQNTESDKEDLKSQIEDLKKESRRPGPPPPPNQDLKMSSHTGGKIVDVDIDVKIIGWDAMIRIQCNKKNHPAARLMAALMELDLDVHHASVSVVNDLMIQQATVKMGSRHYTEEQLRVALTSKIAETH

B1: SlATG18h mutant probe (G/E-box to TTTTTTTT) (dsDNA)
DNA 1: ATTCCATATATTTTTTTTCTCCGTTTCATC
DNA 2: GATGAAACGGAGAAAAAAAATATATGGAAT
For B1, the binding result in data set [1] is recorded as “no binding”.

B2: SlATG18h promoter probe (dsDNA)
DNA 1: ATTCCATATAACACATGTCTCCGTTTCATC
DNA 2: GATGAAACGGAGACATGTGTTATATGGAAT
As for B2, the binding result in data set [2] was “binds”.

B3: SlATG13b mutant probe (G/E-box to TTTTTTTT) (dsDNA)
DNA 1: TTTCTTTGTTTCTTTTTTTTTTTTTACTTC
DNA 2: GAAGTAAAAAAAAAAAAAGAAACAAAGAAA
Consider B3, for which the binding result in data set [3] was “no binding”.

B4: SlATG18a promoter probe (dsDNA)
DNA 1: GGATTGGATCTACACGTGGCATGTAGGATA
DNA 2: TATCCTACATGCCACGTGTAGATCCAATCC
Turning to B4, the binding result in data set [2] is “binds”.

B5: SlATG18a mutant probe (G/E-box to TTTTTTTT) (dsDNA)
DNA 1: GGATTGGATCTTTTTTTTTCATGTAGGATA
DNA 2: TATCCTACATGAAAAAAAAAGATCCAATCC
On to B5, for which the binding result in data set [4] is listed as “no binding”.

B6: SlATG13a mutant probe (G/E-box to TTTTTTTT) (dsDNA)
DNA 1: GAGATTTTTTTTTATGTTTTTTTTTAAATT
DNA 2: AATTTAAAAAAAAACATAAAAAAAAATCTC
On to B6, for which the binding result in data set [5] is reported as “no binding”.

B7: SlATG13b promoter probe (dsDNA)
DNA 1: TTTCTTTGTTTCACACGTTCTTTTTACTTC
DNA 2: GAAGTAAAAAGAACGTGTGAAACAAAGAAA
For the molecule B7, the binding result in data set [2] is listed as “binds”.

B8: SlATG13a promoter probe (dsDNA)
DNA 1: GAGAACACTTGCTATGTCACGTGCTAAATT
DNA 2: AATTTAGCACGTGACATAGCAAGTGTTCTC
As to B8, the binding result in data set [2] is given as “binds”.

(Values after paper PMC10031729, “Interaction of methionine sulfoxide reductase B5 with SlMYC2 stimulates the transcription of MeJA-mediated autophagy-related genes in tomato fruit”.)
